Here are results for one molecule from patent US20240100187A1 (AC IMMUNE, published 2024).

Values joined by “and” are separate entries in the source; they are usually repeats but may differ in a detail not shown here. Identical values can stand only once.

For assay [1], the target named is T1, TDP-43 C-terminal peptide called TP-62.
T1 construct: also called TP-62 peptide
The assay is described as follows: BLI (Octet), TP-62 on streptavidin biosensors; range told for the IgG constructs, transfected or vectorized.

The target of assay [2] is T2, human full length TDP-43 protein (human, UniProt Q13148 1-414).
T2 construct: mature; Coated at 1 ug/ml on ELISA plates; also called hTDP-43 full length (FL) protein; human FL TDP-43
T2 sequence (Q13148 whole entry): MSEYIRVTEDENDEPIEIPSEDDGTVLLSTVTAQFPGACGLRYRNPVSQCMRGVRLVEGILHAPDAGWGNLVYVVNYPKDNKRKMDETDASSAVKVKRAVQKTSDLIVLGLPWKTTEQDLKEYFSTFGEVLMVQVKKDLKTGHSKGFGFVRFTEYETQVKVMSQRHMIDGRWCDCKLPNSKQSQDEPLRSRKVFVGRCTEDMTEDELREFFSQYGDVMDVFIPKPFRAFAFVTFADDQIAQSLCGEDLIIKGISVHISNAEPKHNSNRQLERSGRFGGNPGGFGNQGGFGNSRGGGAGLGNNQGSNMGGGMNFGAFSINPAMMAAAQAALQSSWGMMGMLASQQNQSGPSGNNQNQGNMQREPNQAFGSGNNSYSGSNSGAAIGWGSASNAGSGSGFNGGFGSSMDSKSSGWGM
The experiment in a line: indirect ELISA on coated human full length TDP-43, anti-human secondary antibody, absorbance A450nm; apical supernatants of hCMEC/D3 in the OrganoPlate BBB model 3 days after transduction, and purified control antibodies.
Description: Supernatants from both top lane (apical) and bottom lane (basolateral) were collected 3 days post-transduction and antibody concentrations in the apical and basolateral compartments were determined by binding to human full-length (FL) TDP-43 using an indirect ELISA. In brief, ELISA plate coating with 1 μg/ml human FL TDP-43 was performed overnight in carbonate buffer at 4° C. Plates were washed with 0.05% Tween-20/PBS and then blocked with 1% bovine serum albumin (BSA) in 0.05% Tween-20/PBS for 1 hour at 37° C. Collected antibody-containing supernatants were then added to the plate and incubated for 2 hours at 37° C. after which the plates were washed. […] After the final wash, plates were incubated with pNPP solution and read at 405 nm after 1h using a plate reader (BioTek). […] Supernatants from both apical and basolateral sides were collected 3 days post-transduction and antibody concentrations in the apical and basolateral compartments were determined by binding to human FL TDP-43 using an indirect ELISA as described previously.

In assay [3] the target is T1, TDP-43 C-terminal peptide called TP-62. The assay is described as follows: BLI (Octet), TP-62 on streptavidin biosensors, 2-fold dilutions from 100 nM, 30 C.
For assay [4] the target is unchanged. The experiment in a line: BLI (Octet), TP-62 peptide loaded at 500 nM on streptavidin biosensors, antibody from 100 nM in 2-fold serial dilutions, 900 s association, 600 s dissociation [cont.].

B1: MAB1 IgG (anti-TDP-43 antibody, chimeric human IgG1) (antibody, V domains shown)
VH: EVQLQQSGPELVKPGASVKISCKTSGFTFTEYSMHWVKQSHGKSLEWIGGINPNNGGTSYNQKFKGKATLTVDKSSSTAYMELRSLTSEDSAVYYCARESWGQGTTLTVSS
VL: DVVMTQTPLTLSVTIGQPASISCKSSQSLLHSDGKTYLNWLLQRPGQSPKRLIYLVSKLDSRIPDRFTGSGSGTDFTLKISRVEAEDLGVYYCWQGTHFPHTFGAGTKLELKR
notes: Chimeric human IgG1 anti-TDP-43; The IRES and 2 promoter constructs give the same correctly matured protein, whether transfected (CHO) or AAV-vectorized, so they are treated as one molecule; also called MAB1 hIgG1; IgG standard
B1 came in with a Kd in assay [1] of 4 to 6 nM. Besides, the binding result in assay [2] was “binds”. In addition, in assay [3], the Kd is 5.7 nM and 4.7 nM and 4.3 nM. In assay [4], the Kd is approximately 4.66 nM, the koff came out at 0.000435 s⁻¹ and the kon was 170000 M⁻¹ s⁻¹.
